From PMC11021269, “HspBP1 in Complex with the Peptide of the Innate Immunity Protein Tag7 is Able to Lyse Tumor Cells Carrying TNFR1 Receptor” (Doklady. Biochemistry and Biophysics, 2024)
One block for each molecule: values may come before it.

How the values were obtained:
[1] = system: L929 cells (mouse fibroblasts) bearing the TNFR1 receptor; test: Cytotoxicity on L929 cells (Cytotox kit, Promega); assay type: cell-based
Method: L929 cells (mouse fibroblasts) were cultured in DMEM medium (PanEco, RA) supplemented with 10% fetal bovine serum (HyClone, United States). The culture was obtained from the bank of cell lines of the Blokhin Russian Cancer Research Center of the Russian Academy of Medical Sciences. To measure cytotoxicity, proteins and protein complexes were added to the L929 culture at a concentration of 1 nM, unless a different concentration was specified, and incubated for 3 or 20 h. Cytotoxicity was measured using a Cytotox kit (Promega, United States) according to the manufacturer’s method. To inhibit cytotoxicity, blocking antibodies to TNFR1 were used at a concentration of 10 μg/mL (Invitrogen, United States). Data from 5 different experiments are used.

HspBP1 = molecular target: T1, HspBP1 (Homo sapiens, UniProt Q9NZL4); test: Microscale thermophoresis, binding to Alexa Fluor 633-labeled HspBP1; conditions: labeled HspBP1 200 nM, 20 min incubation, room temperature, 16 concentrations, triplicate; read-out: dissociation constant of the complex with HspBP1, thermophoresis
T1 construct: made in house
T1 sequence (Q9NZL4 1-359): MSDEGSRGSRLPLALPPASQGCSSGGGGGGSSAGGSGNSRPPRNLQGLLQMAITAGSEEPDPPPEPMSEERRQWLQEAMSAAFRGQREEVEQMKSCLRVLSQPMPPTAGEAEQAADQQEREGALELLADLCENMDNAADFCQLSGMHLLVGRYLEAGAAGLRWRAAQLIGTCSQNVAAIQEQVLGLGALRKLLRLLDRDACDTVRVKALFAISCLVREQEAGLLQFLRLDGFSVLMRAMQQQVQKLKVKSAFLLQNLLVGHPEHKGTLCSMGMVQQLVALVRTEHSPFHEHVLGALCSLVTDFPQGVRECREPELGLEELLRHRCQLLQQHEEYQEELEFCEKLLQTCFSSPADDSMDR
Method: Purified HspBP1 was fluorescently labeled using Alexa Fluor 633 (Eugene, OR, United States) according to the manufacturer’s instructions. HspBP1 (200 nM) was incubated for 20 min with each compound in the dark at room temperature at 16 different concentrations obtained by serial dilution starting with the highest soluble concentration. Samples were loaded into glass capillaries (Monolith NT Capillaries) and analyzed by thermophoresis using a Monolith NT 115 nanotemperature instrument (IR laser power 10%). The signal quality was monitored with a NanoTemper Monolith instrument to detect possible ligand autofluorescence, precipitation, aggregation, or ligand-induced changes in photobleaching rate. Experiments were performed in triplicate and processed using affinity analysis software (MO Control v.1.6.1, Nano-Temper).

Hsp70 = conditions: shown previously; read-out: dissociation constant for Hsp70; cited from earlier work
Method: For 17.1–HspBP1, equal to 3.91 nM is also close to these values. […] It can be assumed that the lack of cytotoxic activity inTag7–HspBP1 is associated with its dissociation upon interaction with cells. Thus, a correlation between the affinity of protei ...

Molecule: Tag7–HspBP1 complex: complex of the Tag7 protein with the HspBP1 protein
cytotoxic activity (time not given) [1]: does not have cytotoxic activity | cytotoxic activity after 3 h of incubation ([1]; complexes at 1 nM, 3 h (apoptosis), 5 experiments): did not have cytotoxic activity | cytotoxic activity after 20 h of incubation ([1]; complexes at 1 nM, 20 h (necroptosis), 5 experiments): did not have cytotoxic activity

Kd (HspBP1): 0.328 µM
B1: Tag7: innate immunity protein Tag7, a ligand for the TNFR1 receptor (protein, UniProt O75594 1-196, looked up)
chain: MSRRSMLLAWALPSLLRLGAAQETEDPACCSPIVPRNEWKALASECAQHLSLPLRYVVVSHTAGSSCNTPASCQQQARNVQHYHMKTLGWCDVGYNFLIGEDGLVYEGRGWNFTGAHSGHLWNPMSIGISFMGNYMDRVPTPQAIRAAQGLLACGVAQGALRSNYVLKGHRDVQRTLSPGNQLYHLIQNWPHYRSP
modifications: full-length
notes: innate immunity protein Tag7, a ligand for the TNFR1 receptor
Kd (Hsp70): 0.00173 µM

B2: HspBP1: recombinant co-chaperone that regulates the ATPase activity of Hsp70 (protein, UniProt Q9NZL4 1-359, looked up)
Hsp70-binding protein 1: MSDEGSRGSRLPLALPPASQGCSSGGGGGGSSAGGSGNSRPPRNLQGLLQMAITAGSEEPDPPPEPMSEERRQWLQEAMSAAFRGQREEVEQMKSCLRVLSQPMPPTAGEAEQAADQQEREGALELLADLCENMDNAADFCQLSGMHLLVGRYLEAGAAGLRWRAAQLIGTCSQNVAAIQEQVLGLGALRKLLRLLDRDACDTVRVKALFAISCLVREQEAGLLQFLRLDGFSVLMRAMQQQVQKLKVKSAFLLQNLLVGHPEHKGTLCSMGMVQQLVALVRTEHSPFHEHVLGALCSLVTDFPQGVRECREPELGLEELLRHRCQLLQQHEEYQEELEFCEKLLQTCFSSPADDSMDR
effect on the cytotoxic activity of the Tag7–Hsp70 complex ([1]; increasing concentration of HspBP1, Fig. 1a): inhibits the cytotoxic activity of the Tag7–Hsp70 complex in a dose-dependent manner
